Measurements from the supplement of paper PMC6757056.
± gives the standard deviation of the averaged measurements.

B1: library; a variant is named by its letters at N, in order (parent)
chain: GCUGUCACCGGUGUAUUACCCUAGUGGUCGACCGGUCUGAUGAGUCUNNNNNNAGACGAAACAGC

How the values were obtained:
hypoxanthine [1] = variants of: B1; test: FACS-Seq fitted mean relative fluorescence mCherry/BFP without ligand (log10 relative fluorescence); ligand: hypoxanthine (xanthine aptamer); higher = higher reporter protein expression; conditions: HEK293T, ligand present: no
In short: (§1)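 An mCherry reporter containing the ribozyme switch and an EF1α-BFP marker were introduced by lentivirus into HEK293T libraries. Cells were enriched, incubated 48 h with or without ligand, sorted into 6 bins by mCherry/BFP, and bin genomic DNA was PCR-amplified, barcoded and sequenced on MiSeq. Fluorescence represents the normalized fitted normal mean of the bin counts. Fitting was done on log10(mCherry/BFP), scaling to five spiked-in control ribozymes.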

hypoxanthine [2] = variants of: B1; test: normalized RNA/DNA level with ligand (relative to sTRSVctl = 100) (log10 (% of sTRSVctl)); ligand: hypoxanthine (xanthine aptamer); higher = less ribozyme self-cleavage, higher mRNA level; conditions: ligand concentration (+) RNA-Seq: 5 mM, HEK293T, reporter: mCherry (pCS4076), ligand present: yes
Description: (§2)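 Hammerhead (sTRSV) ribozyme switch libraries with a ligand aptamer grafted on stem I and a randomized N4-6 loop II, cloned into the 3' UTR of mCherry and transiently transfected into HEK293T cells; RNA-Seq 72 h post transfection with ligand added 1 h before transfection; RNA read count / plasmid DNA read count normalized to the non-cleaving sTRSVctl (x100), log10; sequences with >100 DNA reads. FACS-Seq: lentiviral library sorted into 6 bins after 48 h ligand, log-normal fit mean of mCherry/BFP scaled to controls. Printed sequences are partial switch sequences.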

hypoxanthine [3] = variants of: B1; test: normalized RNA/DNA level without ligand (relative to sTRSVctl = 100) (log10 (% of sTRSVctl)); ligand: hypoxanthine (xanthine aptamer); higher = less ribozyme self-cleavage, higher mRNA level; conditions: HEK293T, reporter: mCherry (pCS4076), ligand present: no
Description: as §2

hypoxanthine [4] = variants of: B1; test: FACS-Seq fitted mean relative fluorescence mCherry/BFP with ligand (log10 relative fluorescence); ligand: hypoxanthine (xanthine aptamer); ligand concentration (+) FACS-Seq: 5 mM; higher = higher reporter protein expression; conditions: HEK293T, ligand present: yes
In short: as §1

Row | Variant | FACS-Seq fitted mean (log10) (hypoxanthine [1]) | normalized RNA/DNA level with ligand (log10) (hypoxanthine [2]) | normalized RNA/DNA level without ligand (log10) (hypoxanthine [3]) | FACS-Seq fitted mean (log10) (hypoxanthine [4])
1 | CCAAAC | 0.763 ± 0.049 | 1.93 ± 0.038 | 1.875 ± 0.012 | 0.528 ± 0.086
2 | CCAAAU | 0.00231 ± 0.0079 | 1.93 ± 0.0062 | 1.83 ± 0.058 | 0.404 ± 0.042
3 | ACAAAG | 0.343 ± 0.016 | 1.901 ± 0.0069 | 1.54 ± 0.028 | 0.696 ± 0.034
4 | ACAAAC | 0.5372 ± 0.0045 | 1.93 ± 0.062 | 1.826 ± 0.017 | 0.517 ± 0.046
5 | ACAAAA | 0.4 ± 0.17 | 1.904 ± 0.0062 | 1.81 ± 0.021 | 0.1925 ± 0.0013
6 | ACAAAU | 0.311 ± 0.091 | 1.89 ± 0.029 | 1.65 ± 0.044 | 0.331 ± 0.014
7 | UCAACA | 0.101 ± 0.027 | 1.959 ± 0.018 | 1.84 ± 0.024 | 0.297 ± 0.054
8 | UCAACG | 0.504 ± 0.15 | 1.918 ± 0.0024 | 1.783 ± 0.015 | 0.585 ± 0.091
9 | GAUACA | 0.774 ± 0.022 | 1.93 ± 0.095 | 1.83 ± 0.0097 | 0.711 ± 0.11
10 | GAUACG | -0.036 ± 0.019 | 1.87 ± 0.035 | 1.488 ± 0.0049 | 0.37 ± 0.033
11 | UAUACA | 0.641 ± 0.013 | 1.93 ± 0.053 | 1.854 ± 0.012 | 0.518 ± 0.019
12 | UAUACU | 0.344 ± 0.0075 | 1.93 ± 0.05 | 1.84 ± 0.065 | 0.343 ± 0.066
13 | UAUAUA | 0.814 ± 0.011 | 1.95 ± 0.04 | 1.836 ± 0.018 | 0.838 ± 0.068
14 | UAUAUG | 0.385 ± 0.02 | 1.88 ± 0.049 | 1.723 ± 0.013 | 0.531 ± 0.025
15 | CAUGCU | 0.614 ± 0.036 | 1.97 ± 0.039 | 1.904 ± 0.013 | 0.529 ± 0.073
16 | CAUGCG | 0.687 ± 0.064 | 1.92 ± 0.049 | 1.91 ± 0.082 | 0.645 ± 0.005
17 | AAUUUG | 0.3 ± 0.021 | 1.873 ± 0.012 | 1.57 ± 0.046 | 0.468 ± 0.064
18 | UAUCGC | 0.437 ± 0.11 | 1.947 ± 0.015 | 1.86 ± 0.047 | 0.239 ± 0.064
19 | UAUCGG | 0.2578 ± 0.0003 | 1.86 ± 0.024 | 1.47 ± 0.027 | 0.5888 ± 0.0049
20 | CAUUAU | 0.7325 ± 0.0015 | 1.9 ± 0.08 | 1.8 ± 0.021 | 0.778 ± 0.098
21 | CAUUAA | 0.176 ± 0.0055 | 1.87 ± 0.071 | 1.712 ± 0.015 | 0.306 ± 0.052
22 | AAUCUA | 0.651 ± 0.051 | 1.922 ± 0.014 | 1.8 ± 0.059 | 0.6869 ± 0.0045
23 | AAUCUG | 0.297 ± 0.034 | 1.85 ± 0.022 | 1.43 ± 0.1 | 0.656 ± 0.024
24 | UAUGAC | 0.282 ± 0.084 | 1.95 ± 0.047 | 1.807 ± 0.01 | 0.457 ± 0.11

Row | Variant | FACS-Seq fitted mean (log10) (hypoxanthine [1]) | normalized RNA/DNA level with ligand (log10) (hypoxanthine [2]) | normalized RNA/DNA level without ligand (log10) (hypoxanthine [3]) | FACS-Seq fitted mean (log10) (hypoxanthine [4])
25 | AAUCCU | 0.417 ± 0.063 | 1.94 ± 0.04 | 1.887 ± 0.008 | 0.433 ± 0.13
26 | AAUCCG | 0.134 ± 0.0095 | 1.86 ± 0.073 | 1.423 ± 0.0043 | 0.584 ± 0.0084
27 | AAUGUU | 0.678 ± 0.033 | 1.9 ± 0.072 | 1.85 ± 0.038 | 0.605 ± 0.077
28 | AAUGUA | 0.284 ± 0.0037 | 1.9 ± 0.088 | 1.79 ± 0.047 | 0.204 ± 0.0096
29 | AAUGUG | 0.203 ± 0.0069 | 1.82 ± 0.026 | 1.39 ± 0.05 | 0.573 ± 0.036
30 | AAUUCA | 0.486 ± 0.061 | 1.93 ± 0.049 | 1.86 ± 0.025 | 0.567 ± 0.082
31 | AAUUCG | 0.321 ± 0.022 | 1.9 ± 0.041 | 1.52 ± 0.043 | 0.729 ± 0.034
32 | GAUUUA | 0.541 ± 0.043 | 1.89 ± 0.036 | 1.87 ± 0.051 | 0.437 ± 0.1
33 | GAUUUG | 0.162 ± 0.045 | 1.87 ± 0.046 | 1.4542 ± 0.00087 | 0.521 ± 0.0058
34 | GAUCGG | 0.125 ± 0.0082 | 1.911 ± 0.012 | 1.59 ± 0.07 | 0.418 ± 0.018
35 | UAUUGG | 0.528 ± 0.017 | 1.87 ± 0.031 | 1.431 ± 0.011 | 0.745 ± 0.06
36 | UAUUGU | 0.106 ± 0.0092 | 1.92 ± 0.044 | 1.7 ± 0.026 | 0.411 ± 0.049
37 | AAUGCA | 0.304 ± 0.078 | 1.9039 ± 0.0013 | 1.772 ± 0.012 | 0.563 ± 0.029
38 | AAUGCG | -0.0193 ± 0.038 | 1.85 ± 0.03 | 1.42 ± 0.089 | 0.462 ± 0.044
39 | CAUGGU | 0.331 ± 0.045 | 1.82 ± 0.02 | 1.755 ± 0.0046 | 0.455 ± 0.014
40 | CAUGGG | 0.245 ± 0.013 | 1.86 ± 0.038 | 1.39 ± 0.038 | 0.603 ± 0.0033
41 | CAUAAU | 0.515 ± 0.078 | 1.88 ± 0.059 | 1.793 ± 0.011 | 0.559 ± 0.061
42 | GAUGCC | 0.537 ± 0.022 | 1.96 ± 0.024 | 1.879 ± 0.018 | 0.5688 ± 0.0033
43 | GAUGCG | 0.0728 ± 0.0046 | 1.87 ± 0.038 | 1.498 ± 0.0066 | 0.5658 ± 0.0024
44 | GAUGCU | -0.0807 ± 0.06 | 1.93 ± 0.063 | 1.867 ± 0.012 | 0.0649 ± 0.0092
45 | UAUAGU | 0.0206 ± 0.046 | 1.86 ± 0.029 | 1.57 ± 0.063 | 0.131 ± 0.037
46 | ACAAUA | 0.442 ± 0.015 | 1.916 ± 0.017 | 1.81 ± 0.015 | 0.552 ± 0.018
47 | AAUAAU | 0.172 ± 0.059 | 1.89 ± 0.022 | 1.75 ± 0.021 | 0.376 ± 0.046
48 | UCAAUC | 0.3976 ± 0.0018 | 2.0151 ± 0.001 | 2 ± 0.024 | 0.543 ± 0.12

Row | Variant | FACS-Seq fitted mean (log10) (hypoxanthine [1]) | normalized RNA/DNA level with ligand (log10) (hypoxanthine [2]) | normalized RNA/DNA level without ligand (log10) (hypoxanthine [3]) | FACS-Seq fitted mean (log10) (hypoxanthine [4])
49 | UCAAGU | 0.221 ± 0.018 | 1.91 ± 0.0075 | 1.63 ± 0.043 | 0.415 ± 0.046
50 | UCAAGA | 0.386 ± 0.04 | 1.92 ± 0.028 | 1.54 ± 0.051 | 0.599 ± 0.074
51 | AAUUGG | 0.22 ± 0.02 | 1.872 ± 0.014 | 1.405 ± 0.0046 | 0.658 ± 0.036
52 | AAUUGA | -0.0788 ± 0.062 | 1.9 ± 0.041 | 1.73 ± 0.018 | -0.112 ± 0.16
53 | UAUCAA | 0.456 ± 0.02 | 1.91 ± 0.029 | 1.81 ± 0.021 | 0.414 ± 0.055
54 | UAUCAC | 0.6449 ± 0.00099 | 1.909 ± 0.012 | 1.86 ± 0.04 | 0.584 ± 0.023
55 | AAUUAA | 0.435 ± 0.032 | 1.893 ± 0.0034 | 1.764 ± 0.0032 | 0.276 ± 0.14
56 | AAUUAG | 0.404 ± 0.012 | 1.86 ± 0.037 | 1.52 ± 0.032 | 0.681 ± 0.03
57 | AAUUAC | 0.511 ± 0.13 | 1.96 ± 0.04 | 1.823 ± 0.016 | 0.516 ± 0.022
58 | UAUUAC | 0.513 ± 0.025 | 1.9 ± 0.054 | 1.823 ± 0.018 | 0.512 ± 0.011
59 | UAUUAA | 0.486 ± 0.054 | 1.89 ± 0.0083 | 1.86 ± 0.022 | 0.724 ± 0.088
60 | UAUUAU | 0.643 ± 0.015 | 1.93 ± 0.023 | 1.8 ± 0.028 | 0.594 ± 0.024
61 | GAUUCG | -0.06 ± 0.056 | 1.906 ± 0.0054 | 1.54 ± 0.021 | 0.357 ± 0.021
62 | GAUUGA | 0.348 ± 0.023 | 1.92 ± 0.022 | 1.61 ± 0.05 | 0.455 ± 0.063
63 | GAUUGC | 0.4839 ± 0.0013 | 1.87 ± 0.054 | 1.65 ± 0.043 | 0.553 ± 0.01
64 | GAUUGG | -0.303 ± 0.024 | 1.794 ± 0.017 | 1.29 ± 0.047 | 0.393 ± 0.017
65 | GAUUGU | 0.452 ± 0.076 | 1.944 ± 0.01 | 1.77 ± 0.042 | 0.601 ± 0.054
66 | AAUCGG | 0.134 ± 0.047 | 1.837 ± 0.013 | 1.373 ± 0.006 | 0.58 ± 0.038
67 | GAUAAG | -0.0234 ± 0.075 | 1.81 ± 0.027 | 1.36 ± 0.025 | 0.43 ± 0.02
68 | GAUAAU | -0.0227 ± 0.0069 | 1.909 ± 0.0021 | 1.78 ± 0.026 | 0.133 ± 0.006
69 | GCAAAU | -0.00409 ± 0.019 | 1.932 ± 0.0088 | 1.75 ± 0.043 | 0.371 ± 0.013
70 | GCAAAC | 0.411 ± 0.03 | 1.91 ± 0.023 | 1.6 ± 0.036 | 0.455 ± 0.055
71 | CCAAGC | 0.126 ± 0.14 | 1.938 ± 0.012 | 1.79 ± 0.15 | 0.366 ± 0.074
72 | CCAAGU | 0.347 ± 0.027 | 1.94 ± 0.024 | 1.863 ± 0.016 | 0.544 ± 0.032
